Here are results for 26 molecules from US5811533, “High-affinity oligonucleotide ligands to vascular endothelial growth factor (VEGF)” (NeXstar Pharmaceuticals, Inc.).

For orientation: Kd means the concentration at which binding is half-saturated.

The labels stand for the following.
B1: ssDNA 6 (ssDNA)
DNA: ATCCGCCTGATTAGCGATACTATACACCCGGCGGGCCTACCGGATCGTTGATTTCTCTCCACTTGAGCAAAATCACCTGCAGGGG
B2: ssDNA b85 (ssDNA)
DNA: CTACCTACGATCTGACTAGCGAGGAGGTGCGTTGTCCGAAGGGGTCGTTAGTCACCTCGTGCTTAGCTTACTCTCATGTAGTTCCT
B3: ssDNA b65 (ssDNA)
DNA: CTACCTACGATCTGACTAGCCGAGGTCCCCCACTGGATAGAGTTGTTGAAACAACGGTGCGCTTAGCTTACTCTCATGTAGTTCCT
B4: ssDNA 23 (ssDNA)
DNA: ATCCGCCTGATTAGCGATACTGGGCATCTAACCCAGACCTACCGGAACGTTATCGCTTGTGACTTGAGCAAAATCACCTGCAGGGG
B5: ssDNA 1 (ssDNA)
DNA: ATCCGCCTGATTAGCGATACTTCTGCGAGAGACCTACTGGAACGTTTTGTGATATTCACAACTTGAGCAAAATCACCTGCAGGGG
B6: ssDNA b80 (ssDNA)
DNA: CTACCTACGATCTGACTAGCCCGTCGCGTGACTATAACCACACGCAGACTAGAGTGCAGGGCTTAGCTTACTCTCATGTAGTTCCT
B7: ssDNA b95 (ssDNA)
DNA: CTACCTACGATCTGACTAGCCCACTGCATAGAGAACTGGATCGACGGTCCAAAGTTCGGTGCTTAGCTTACTCTCATGTAGTTCCT
B8: ssDNA 33 (ssDNA)
DNA: ATCCGCCTGATTAGCGATACTTCAAGCACTCCCGTCTTCCAGACAAGAGTGCAGGGCCTCTACTTGAGCAAAATCACCTGCAGGGG
B9: ssDNA b59 (ssDNA)
DNA: CTACCTACGATCTGACTAGCAACACGAGCATGTGGGGTCCCTTCCGAATGGGGGGTACAGGCTTAGCTTACTCTCATGTAGTTCCT
B10: ssDNA 15 (ssDNA)
DNA: ATCCGCCTGATTAGCGATACTACCGCTGTGTAGTTCCTTTAGGACTAGAGGGCCGCCTACACTTGAGCAAAATCACCTGCAGGGG
B11: ssDNA b99 (ssDNA)
DNA: CTACCTACGATCTGACTAGCCACGATAATCCTCCGAAAGCGTTGTCCGAATGGGTCGTTAGCTTAGCTTACTCTCATGTAGTTCCT
B12: ssDNA b88 (ssDNA)
DNA: CTACCTACGATCTGACTAGCGCAAGGGGTCCTGCCGAATGGGGGAATACGCTAGCCGAAAGCTTACTCTCATGTAGTTCCT
B13: ssDNA b66 (ssDNA)
DNA: CTACCTACGATCTGACTAGCAACACTTCCCCACTGGATAGAGGCCTTTCGCAGAGCCGGTGCTTAGCTTACTCTCATGTAGTTCCT
B14: ssDNA b53 (ssDNA)
DNA: CTACCTACGATCTGACTAGCGCAAGGGCATCTCGGAATCGGTTAATCTGACTTGCAATACGCTTAGCTTACTCTCATGTAGTTCCT
B15: ssDNA 10 (ssDNA)
DNA: ATCCGCCTGATTAGCGATACTGTACCATCCACGGTTTACGTGGACAAGAGGGCCCTGGTACACTTGAGCAAAATCACCTGCAGGGG
B16: ssDNA b98 (ssDNA)
DNA: CTACCTACGATCTGACTAGCGATCCACGAAGAAGCTTACTCTCATGTAGTTCCAGCTTACTCTCATGTAGTTCCT
B17: ssDNA b60 (ssDNA)
DNA: CTACCTACGATCTGACTAGCCCACCGCAGAGTGTTACACCCCATAGGAGAAGTCCGGATGGCTTAGCTTACTCTCATGTAGTTCCT
B18: ssDNA b79 (ssDNA)
DNA: CTACCTACGATCTGACTAGCGAGGCATTAGGTCCGAATGGTAGTAATGCTGTCGTGCCTTGCTTAGCTTACTCTCATGTAGTTCCT
B19: ssDNA b56 (ssDNA)
DNA: CTACCTACGATCTGACTAGCGCAGGGCCACGTCTATTTAGACTAGAGTGCAGTGGTTCGCTTACTCTCATGTAGTTCCT

Where only a bound is given, the exact number is not on record here.

Sequence of VEGF165 (recombinant human vascular endothelial growth factor, 165 aa form) (P15692 other isoform, or with tags, fused parts or gaps): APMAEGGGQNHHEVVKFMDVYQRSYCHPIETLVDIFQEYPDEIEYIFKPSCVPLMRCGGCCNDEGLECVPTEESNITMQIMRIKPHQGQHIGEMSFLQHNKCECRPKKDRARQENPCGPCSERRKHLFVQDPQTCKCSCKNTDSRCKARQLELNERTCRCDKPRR

The data set has as its target VEGF165 (recombinant human vascular endothelial growth factor, 165 aa form) (Homo sapiens, UniProt P15692-4 P15692-4:27-191). Briefly: filter. The following applies: tags: gift from N. Ferrara, Genentech; chain copies: 2 (dimer, stated).
As for B1, the Kd turned out to be 1 nM.
To B2 belongs 0.15 nM; to B3, 0.53 nM.
For the molecule B4, the Kd stood at 0.75 nM.
The value for CGAGGTCCCCCACTGGATAGAGTTGTTGAAACAACGGTGCGCTTA (ssDNA) [65t] was 0.32 nM; that for B5 was 12 nM; that for B6 was 8.1 nM.
For B7, the Kd amounted to 0.9 nM.
For the molecule GGAGGTGCGTTGTCCGAAGGGGTCGTTAGTCACCTC (ssDNA) [85t], the dissociation constant Kd is 0.3 nM.
To B8 belongs 2 nM; to B9, 91 nM; to B10, 0.88 nM.
Regarding AGGGCCACGTCTATTTAGACTAGAGTGCAGTGGTTC (ssDNA) [56t], the Kd was determined as 0.2 nM.
For the molecule B11, the Kd is 34 nM.
The value for B12 was 34 nM; that for B13 was 1.3 nM.
For the molecule B14, the Kd worked out at 2.5 nM.
The value for GCAAGGGGTCCTGCCGAATGGGGGAATACGCTAGCCGAAA (ssDNA) [88t] was 19 nM; that for GTACCATCCACGGTTTACGTGGACAAGAGGGCCCTGGTAC (ssDNA) [10t] was 5 nM.
Turning to B15, the Kd came out at 1 nM.
Turning to GTAGTTCCTTTAGGACTAGAGGGCCGCCTAC (ssDNA) [15t], the Kd came out at 3 nM.
The value for B16 was greater than 100 nM; that for B17 was 26 nM.
To B18 belongs 2 nM; to AACACTTCCCCACTGGATAGAGGCCTTTCGCAGAGCCGGTGCTTA (ssDNA) [66t], 0.35 nM.
To B19 belongs 0.5 nM.
